Legend:
[1] = molecular target: T1, human epidermal growth factor receptor 2 (HER2) extracellular domain (human, UniProt P04626 23-629); experiment: SPR, table row 28
[2] = molecular target: T1, human epidermal growth factor receptor …; experiment: SPR, table row 40
[3] = molecular target: T1, human epidermal growth factor receptor …; experiment: SPR, table row 25
[4] = molecular target: T1, human epidermal growth factor receptor …; experiment: SPR, table row 39
[5] = molecular target: T1, human epidermal growth factor receptor …; experiment: SPR, table row 38
[6] = molecular target: T1, human epidermal growth factor receptor …; experiment: SPR, table row 42
[7] = molecular target: T1, human epidermal growth factor receptor …; experiment: SPR, table row 30
[8] = molecular target: T1, human epidermal growth factor receptor …; experiment: SPR, table row 34
[9] = molecular target: T1, human epidermal growth factor receptor …; experiment: SPR, table row 29
[10] = molecular target: T1, human epidermal growth factor receptor …; experiment: SPR, table row 32
[11] = molecular target: T1, human epidermal growth factor receptor …; experiment: SPR, table row 35
[12] = molecular target: T1, human epidermal growth factor receptor …; experiment: SPR, table row 7
[13] = molecular target: T1, human epidermal growth factor receptor …; experiment: SPR, table row 33
[14] = molecular target: T2, human vascular endothelial growth factor A (VEGF-A) (human, UniProt P15692 220-313); experiment: SPR, Fab format
T2 sequence: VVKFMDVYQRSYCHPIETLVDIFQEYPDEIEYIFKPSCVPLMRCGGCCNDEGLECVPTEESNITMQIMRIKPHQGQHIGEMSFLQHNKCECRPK

B1: Trast_Her2_76 (Fab, V domains shown)
VH: EVQLVESGGGLVQPGGSLRLSCAASGFNIKDTYIHWVRQAPGKGLEWVARIYPTNGYTRYADSVKGRFTISADTSKNTAYLQMNSLRAEDTAVYYCAMDFKFTRLDLWGQGTLVTVSS
VL: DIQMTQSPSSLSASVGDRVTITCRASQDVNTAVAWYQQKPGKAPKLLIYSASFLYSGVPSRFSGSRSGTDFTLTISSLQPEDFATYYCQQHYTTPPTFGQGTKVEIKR
notes: also called HCDR3 AMDFKFTRLDL
Kd [1]: 36.4 nM
koff [1]: 0.00127 s⁻¹
kon [1]: 35000 M⁻¹ s⁻¹
Kd [2]: 159 nM
koff [2]: 0.00525 s⁻¹
kon [2]: 33100 M⁻¹ s⁻¹

B2: Trast_Her2_229 (Fab, V domains shown)
VH: EVQLVESGGGLVQPGGSLRLSCAASGFNIKDTYIHWVRQAPGKGLEWVARIYPTNGYTRYADSVKGRFTISADTSKNTAYLQMNSLRAEDTAVYYCARFDRYGYYLGTWGQGTLVTVSS
VL: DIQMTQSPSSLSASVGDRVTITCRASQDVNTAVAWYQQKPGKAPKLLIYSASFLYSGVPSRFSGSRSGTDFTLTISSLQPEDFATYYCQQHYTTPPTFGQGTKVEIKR
notes: also called HCDR3 ARFDRYGYYLGT
Kd [3]: 30.4 nM
koff [3]: 0.000635 s⁻¹
kon [3]: 20900 M⁻¹ s⁻¹
Kd [4]: 114 nM
koff [4]: 0.00201 s⁻¹
kon [4]: 17700 M⁻¹ s⁻¹

B3: Trast_Her2_230 (Fab, V domains shown)
VH: EVQLVESGGGLVQPGGSLRLSCAASGFNIKDTYIHWVRQAPGKGLEWVARIYPTNGYTRYADSVKGRFTISADTSKNTAYLQMNSLRAEDTAVYYCARFDRYGYYLGTWGQGTLVTVSS
VL: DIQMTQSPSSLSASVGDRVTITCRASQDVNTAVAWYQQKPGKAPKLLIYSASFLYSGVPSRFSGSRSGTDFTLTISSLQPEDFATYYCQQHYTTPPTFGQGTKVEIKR
notes: as for B2
Kd [5]: 104 nM
koff [5]: 0.0023 s⁻¹
kon [5]: 22100 M⁻¹ s⁻¹
Kd [6]: 198 nM
koff [6]: 0.0046 s⁻¹
kon [6]: 23300 M⁻¹ s⁻¹

B4: Trast_Her2_231 (Fab, V domains shown)
VH: EVQLVESGGGLVQPGGSLRLSCAASGFNIKDTYIHWVRQAPGKGLEWVARIYPTNGYTRYADSVKGRFTISADTSKNTAYLQMNSLRAEDTAVYYCARFGISGYYWDVWGQGTLVTVSS
VL: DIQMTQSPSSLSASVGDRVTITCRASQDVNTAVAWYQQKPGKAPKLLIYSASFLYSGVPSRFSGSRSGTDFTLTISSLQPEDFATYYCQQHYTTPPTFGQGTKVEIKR
notes: also called HCDR3 ARFGISGYYWDV
Kd [7]: 43.3 nM
koff [7]: 0.00106 s⁻¹
kon [7]: 24500 M⁻¹ s⁻¹
Kd [8]: 64.4 nM
koff [8]: 0.0014 s⁻¹
kon [8]: 21800 M⁻¹ s⁻¹

B5: Trast_Her2_58 (Fab, V domains shown)
VH: EVQLVESGGGLVQPGGSLRLSCAASGFNIKDTYIHWVRQAPGKGLEWVARIYPTNGYTRYADSVKGRFTISADTSKNTAYLQMNSLRAEDTAVYYCAKRDFGRDWFAYWGQGTLVTVSS
VL: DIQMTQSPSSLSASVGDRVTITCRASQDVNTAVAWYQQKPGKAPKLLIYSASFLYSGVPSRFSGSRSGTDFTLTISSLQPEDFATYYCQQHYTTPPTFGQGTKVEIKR
notes: also called HCDR3 AKRDFGRDWFAY
Kd [9]: 38.8 nM
koff [9]: 0.000582 s⁻¹
kon [9]: 15000 M⁻¹ s⁻¹

B6: Trast_Her2_59 (Fab, V domains shown)
VH: EVQLVESGGGLVQPGGSLRLSCAASGFNIKDTYIHWVRQAPGKGLEWVARIYPTNGYTRYADSVKGRFTISADTSKNTAYLQMNSLRAEDTAVYYCAKRNAYRGSLDYWGQGTLVTVSS
VL: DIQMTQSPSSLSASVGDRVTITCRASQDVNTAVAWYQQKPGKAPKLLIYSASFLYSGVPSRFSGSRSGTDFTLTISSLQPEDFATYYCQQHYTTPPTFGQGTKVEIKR
notes: also called HCDR3 AKRNAYRGSLDY
Kd [10]: 51.1 nM
koff [10]: 0.000717 s⁻¹
kon [10]: 14000 M⁻¹ s⁻¹
Kd [11]: 64.9 nM
koff [11]: 0.00077 s⁻¹
kon [11]: 11900 M⁻¹ s⁻¹

B7: Trast_Her2_56 (Fab, V domains shown)
VH: EVQLVESGGGLVQPGGSLRLSCAASGFNIKDTYIHWVRQAPGKGLEWVARIYPTNGYTRYADSVKGRFTISADTSKNTAYLQMNSLRAEDTAVYYCAKPYYFNYDLGVWGQGTLVTVSS
VL: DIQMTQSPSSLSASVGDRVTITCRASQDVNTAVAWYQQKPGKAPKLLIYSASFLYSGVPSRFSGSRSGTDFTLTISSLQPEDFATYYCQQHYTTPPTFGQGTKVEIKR
notes: also called HCDR3 AKPYYFNYDLGV
Kd [12]: 2.44 nM
koff [12]: 2.42e-05 s⁻¹
kon [12]: 9940 M⁻¹ s⁻¹
Kd [13]: 56.8 nM
koff [13]: 0.000933 s⁻¹
kon [13]: 16400 M⁻¹ s⁻¹

B8: De novo ranibizumab HCDR3 variant ASGNFSYPDDYGMDW (SEQ ID NO: 50) (Fab, V domains shown)
VH: EVQLVESGGGLVQPGGSLRLSCAASGYDFTHYGMNWVRQAPGKGLEWVGWINTYTGEPTYAADFKRRFTFSLDTSKSTAYLQMNSLRAEDTAVYYCASGNFSYPDDYGMDWWGQGTLVTVSS
VL: DIQLTQSPSSLSASVGDRVTITCSASQDISNYLNWYQQKPGKAPKVLIYFTSSLHSGVPSRFSGSGSGTDFTLTISSLQPEDFATYYCQQYSTVPWTFGQGTKVEIKR
Kd [14]: 48.2 nM

Source: patent US20250218531A1 (ABSCI, published 2025)
